From patent publication US11407840B2, “Antibodies to M(H)DM2/4 and their use in diagnosing and treating cancer” (NomoCan Pharmaceuticals LLC, priority 2017, dated 2022)
Entries after “also recorded” stand apart in the source; their conditions may differ. One block for each molecule: values may come before it.

Tests used:
Type in all cases: binding
[1] = system: mouse Lewis Lung LL/2 cancer cells; experiment: Flow cytometry, EDTA versus trypsin, intact versus permeabilized cells; conditions: antibody 5 μg/ml, FIG. 11
Method: Flow Cytometry Methodology: Cells that had been allowed to grow to about 80% confluency in 25 cm^2 tissue culture flasks were released with either EDTA (10 mmols; pH7.2; 5 min, 37° C.) or Trypsin (Gibco TrypLE Express), fixed with freshly made 4% buffered (pH 7.4) paraformaldehyde for 1 h at room temperature, washed several times with a large volume of ice-cold PBS, and blocked for 30 minutes at room temperature with 5% human serum albumin in PBS (intact, non-permeabilized cells). After establishing viability, the cell number was adjusted to 10^6 cells/ml and kept in ice-cold PBS until staining. Another set of the same cells was released with either EDTA or Trypsin and fixed with 4% buffered paraformaldehyde as above, then washed and blocked with 5% human serum albumin in PBS, and was treated separately with Triton X-100 (0.1% in PBS) (International Biotechnologies Inc. 07100) for 5 minutes at room temperature for membrane permeabilization. After washing off the Triton X-100 solution with PBS the cells were adjusted to 10^6 cells/ml and stored in ice-cold PBS. Cells (10^6/ml) from each preparation were then incubated either with 5 μg/ml of mAb to Na+/K+ ATPase ? -1 (Abeam, Cat. No. ab2826), 5 μg/ml of mAb NMC-103, or 5 μg/ml of mAb NMC-204 for 90 min at room temperature. Following primary antibody incubation, cells were washed 3 times with ice-cold PBS followed by incubation with rabbit anti-mouse PE-Cy5 labeled secondary antibody (PE-Cy5-RaM IgG (H&L); Invitrogen, Cat. No. M35018) at room temperature. Sixty minutes later the cells were washed 3 times with PBS and subjected to flow cytometry analysis (BD Canto Flow Cytometry). Controls to establish background fluorescence included the analysis of samples of unstained cells as well as cells that had been processed with secondary antibody under the same conditions as used in the experimental samples.
To further validate that the epitopes of the plasma membrane M(H)DM2 are in fact extracellularly accessible sequences on cancer cells, binding of mAbs NMC-103, NMC-204 and NMC-303 was performed on mouse Lewis Lung LL/2 cancer cells under treatment conditions of EDTA versus trypsin. Both of these conditions were also tested on intact versus permeabilized cells. FIG. 11 panels A, B and C present flow cytometry data on % cells stained with mAbs NMC-103, NMC-204 and anti-Na+/K+ ATPase ? -1, respectively. Each antibody was reacted with cells from four treatment conditions: EDTA-treated intact cells, EDTA-treated permeabilized cells, trypsin-treated intact cells, trypsin-treated permeabilized cells. […] However, when trypsin-treaded cells were permeabilized, the above reduction in binding was compensated by reactivity of the antibodies to intracellular MDM2 or Na+/K+ ATPase a-1.

[2] = target: T1, recombinant full-length HDM2 protein (GST tagged) (Homo sapiens, UniProt Q00987); experiment: Western blot (immunoblot); conditions: 1 μg/well protein; band at approximately 83 kD; FIG. 2
T1 construct: reacted with the recombinant full-length HDM2 protein; purchased Abcam ab188727
Method: Western Blot: As for immunoblots, 1 μg/well of recombinant FIDM2 protein (GST tagged, Abeam, Cat. No. ab188727) was separated on 8-16% sodium dodecyl sulfate (SDS) polyacrylamide gel and proteins were then transferred to polyvinylidene difluoride (PVDF) membrane. The membrane was blocked with 5% milk followed by incubation with monoclonal antibody NMC-103, NMC-204 or NMC-303 at 1 μg/πι ? in 1% milk in PBS for 2 hours. The membrane was then washed×3 times (10 minutes each) and incubated for 1 hour with corresponding HRP-conjugated secondary antibody (Goat anti-Mouse IgG (H&L), F(ab′)2 Frag Cross-adsorbed HRP (HRP-GaM F(ab′)2), ThermoFisher, Cat. No. A24524) diluted 1:5000 in 1% BSA-PBS. The membrane was then washed×3 times and incubated with Pierce ECL Plus Western Blotting Substrate (ThermoFisher, Cat. No. #32132) for 10 min before developing on a LICOR Scanner.

[3] = target: NMC-P2 peptide (SEQ ID NO:2), amino acids 15-25 of HDM2 (Homo sapiens, UniProt Q00987); experiment: Peptide-ELISA, NMC-P2 peptide; conditions: 5 μg/ml peptide dried on plate; OD 450 nm
Method: (§1) Peptide-ELISA Methodology: 5 μg/ml of NMC-P1, NMC-P2 or NMC-P3 peptide antigen was dried onto a 96-well ELISA plate overnight. Plates were then blocked with 5% BSA in 1× phosphate-buffered saline (PBS) (100 ? /well) for 2 hours at room temperature. Microplate wells were then washed 5 times with 300 ? of ice cold 1× PBS. Appropriate dilutions of monoclonal antibodies NMC-103, NMC-204 or NMC-303 in 1% bovine serum albumin (BSA) in PBS solution were then incubated with their corresponding peptides (NMC-P1, NMC-P2 or NMC-P3, respectively) at room temperature. After 2 hours, wells were washed 5 times with 300 ? ? ice-cold PBS/well and 100 ? secondary antibody (HRP-labeled Goat anti-Mouse F(ab′)2 H&L cross-adsorbed secondary antibody (HRP-GaM F(ab′)2), ThermoFisher, Cat. No. A24524) diluted 1:2500 to 1:5000 in PBS-1% BSA solution were added and the incubation continued at room temperature. After 1 hour, the wells were washed again 5 times with 200 ? of ice-cold PBS and 50 μiL of the TMB Substrate Solution (1-StepTM Ultra TMB-ELISA, ThermoFisher, Cat. No. 34028) were added to each well and color was allowed to develop for 30 minutes at room temperature. The reaction was stopped by addition of 50 μ ? ? of stop solution (ThermoFisher, Cat. No. SSO4) to each well and absorbance of each well was read immediately for optical density (OD) at 450 nm.

[4] = target: NMC-P1 peptide (SEQ ID NO:1), amino acids 1-15 of HDM2 (Homo sapiens, UniProt Q00987); experiment: Peptide-ELISA, NMC-P1 peptide; conditions: 5 μg/ml peptide dried on plate; OD 450 nm
Method: as §1

[5] = EDTA-treated permeabilized cells (Triton X-100)

T1 sequence (Q00987 whole entry): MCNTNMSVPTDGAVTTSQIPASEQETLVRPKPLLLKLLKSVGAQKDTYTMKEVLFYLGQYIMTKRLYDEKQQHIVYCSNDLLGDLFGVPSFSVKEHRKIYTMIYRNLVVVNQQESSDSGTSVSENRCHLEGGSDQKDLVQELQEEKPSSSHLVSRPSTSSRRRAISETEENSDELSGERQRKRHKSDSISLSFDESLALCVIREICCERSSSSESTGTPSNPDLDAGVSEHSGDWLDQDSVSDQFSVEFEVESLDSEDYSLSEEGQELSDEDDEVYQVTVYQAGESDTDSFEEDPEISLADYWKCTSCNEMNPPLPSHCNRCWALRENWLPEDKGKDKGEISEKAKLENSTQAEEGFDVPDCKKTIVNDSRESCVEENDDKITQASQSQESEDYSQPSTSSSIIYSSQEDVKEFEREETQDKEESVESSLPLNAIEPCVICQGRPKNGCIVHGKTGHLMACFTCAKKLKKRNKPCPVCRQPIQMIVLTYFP

reactivity with recombinant full-length HDM2-GST protein in immunoblot [2]: reacted
binding to NMC-P2 peptide (peptide-ELISA) [3]: bound; also recorded: strong binding
binding to NMC-P1 peptide (peptide-ELISA) [4]: did not bind
B1: NMC-204: mouse monoclonal antibody, IgG3 isotype, binds NMC-P2 (SEQ ID NO:2); VH SEQ ID NO:38, VL SEQ ID NO:39 (antibody, V domains shown)
VH: EVQLQESGSVLVRPGASVKLSCKASGDTLSGSWMHWAMQRPGQGLEWIGEIHLNRGTTNYNEKFKGKATVTVDTSSSTAYVDLSSLTSEDSAVYYCARSPGFAYWGQGTLVTVSA
VL: GIVMTQAAPSVPVTPGESVSISCRSSKSLLHSNGNSYLYWFLQRPGQSPQLLIYRMSNLASGVPDRFSGSGSGTAFTLRITRVEAEDVGVYYCMQHLEYPFTFGSGTKLEIK
modifications: mAb NMC-204 Heavy Chain Variable Region; mAb NMC-204 Light Chain Variable Region
% cells stained (flow cytometry) ([1]; EDTA-treated intact cells): 51.2%
% cells stained (flow cytometry) [1, 5]: 52.85%
% cells stained (flow cytometry) ([1]; trypsin-treated intact cells): 27%

B2: NMC-103: mouse monoclonal antibody, IgG1 isotype, binds NMC-P1 (SEQ ID NO:1); VH SEQ ID NO:36, VL SEQ ID NO:37 (antibody, V domains shown)
VH: EVQLQESGGGLVQPGGSLRLSCTTSGFTFTHYYMSWVRQPPGKALEWLGFIRNKAKGYTAEYSASVKGRFTISRDNSQSILYLQMNTLRPEDSATYYCARDIGDNWGQGTLVTVSS
VL: DIVMTQAAFSNPVTLGTSASISCRSSKNLLHSNGITYLYWYLQRPGQSPQLLISRVSNLASGVPNRFSGSESGTDFTLRISRVEAEDVGVYFCAQLLELPYTFGGGTKLEIK
modifications: mAb NMC-103 Heavy Chain Variable Region; mAb NMC-103 Light Chain Variable Region
% cells stained (flow cytometry) ([1]; EDTA-treated intact cells): 70.4%
% cells stained (flow cytometry) [1, 5]: 75.8%
% cells stained (flow cytometry) ([1]; trypsin-treated intact cells): 36.8%
reactivity with recombinant full-length HDM2-GST protein in immunoblot [2]: reacted
binding to NMC-P2 peptide (peptide-ELISA) [3]: did not bind
binding to NMC-P1 peptide (peptide-ELISA) [4]: bound; also recorded: strong binding
